Target: T1, purified human Clec7a protein (R&D Systems Cat. 1859-DC-050) (human, UniProt Q9BXN2 66-247)
T1 construct: Clec7a, human, bought recombinant protein; source: bought: R&D Systems (Cat. 1859-DC-050)
T1 sequence (looked up): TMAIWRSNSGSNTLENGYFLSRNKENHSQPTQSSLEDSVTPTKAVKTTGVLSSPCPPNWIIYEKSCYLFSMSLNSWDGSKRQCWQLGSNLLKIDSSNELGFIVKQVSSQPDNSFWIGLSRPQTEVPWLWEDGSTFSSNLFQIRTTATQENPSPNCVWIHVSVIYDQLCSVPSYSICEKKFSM
Assay: MST; Monolith NT.115, 20 °C, 20 mM HEPES pH 8.0, 150 mM NaCl; Clec7a constant at 50 nM, MD2 varied from 10 µM to 1.2 nM; n = 3
Settings: both partners purified

Kd: 2960 nM
B1: human MD2 protein (R&D Systems Cat. 1787-MD) (ligand, UniProt Q9Y6Y9 19-160, looked up)
chain: QKQYWVCNSSDASISYTYCDKMQYPISINVNPCIELKRSKGLLHIFYIPRRDLKQLYFNLYITVNTMNLPKRKEVICRGSDDDYSFCRALKGETVNTTISFSFKGIKFSKGKYKCVVEAISGSPEEMLFCLEFVILHQPNSN
notes: MD2 (lymphocyte antigen 96), human, bought recombinant protein; source: bought: R&D Systems (Cat. 1787-MD)

Source: PMC11423142, “Clec7a Worsens Long‐Term Outcomes after Ischemic Stroke by Aggravating Microglia‐Mediated Synapse Elimination” (Advanced Science, 2024)
